US20210371823A1

Molecular target: human MICA protein (hMICA) (human) (UniProt Q29983)
Assay: cell-based or functional assay

Chain of UniProt Q29983 (Q29983 24-383): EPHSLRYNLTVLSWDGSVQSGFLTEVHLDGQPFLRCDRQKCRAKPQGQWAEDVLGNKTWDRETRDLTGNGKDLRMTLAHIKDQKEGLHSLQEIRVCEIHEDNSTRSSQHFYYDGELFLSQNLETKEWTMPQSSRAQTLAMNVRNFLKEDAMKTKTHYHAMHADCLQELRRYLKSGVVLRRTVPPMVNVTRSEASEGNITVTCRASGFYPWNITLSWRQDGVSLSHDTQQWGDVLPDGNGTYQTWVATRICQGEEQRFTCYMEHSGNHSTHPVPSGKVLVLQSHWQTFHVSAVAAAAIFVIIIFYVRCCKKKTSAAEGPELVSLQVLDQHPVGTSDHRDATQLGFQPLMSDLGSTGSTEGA

Question: How did the killing effect of NK cells on 3T3-Luc/hMICA cells at effector-target ratio 1:1 (luciferase-based killing assay) turn out when “activation receptor NKG2D on NK cells (from UniProt P26718 1-216)” was run?
Answer: Its killing effect of NK cells on 3T3-Luc/hMICA cells at effector-target ratio 1:1 (luciferase-based killing assay) is 60%.
